Values belong to the substance of their own block, whether it stands above or below them.
Assays:
[1] = target: Peptide sequence V: Bz-…(mPeg2)(KLCBiot)-amide; assay: ECL bead immunoassay; uncleaved peptide sequence V on streptavidin beads, FXa 0.00 ng/mL, 10 minute incubation
[2] = target: Peptide sequence V: Bz-…(mPeg2)(KLCBiot)-amide; assay: ECL bead immunoassay; uncleaved peptide sequence V on streptavidin beads, FXa 0.00 ng/mL, 20 minute incubation
[3] = target: NH2-…-TAG (SEQ ID NO:5); assay: ECL capture assay; uncleaved NH2-…-TAG at 5.0 µg/mL, FXa 0.00 ng/mL
[4] = target: NH2-…-TAG (SEQ ID NO:5); assay: ECL capture assay; uncleaved NH2-…-TAG at 2.5 µg/mL, FXa 0.00 ng/mL
[5] = target: Peptide sequence VII: NH2-…-TAG Plus; assay: competitive ECL immunoassay; anti-FLAG M1 beads with peptide sequence VII-TAG Plus, uncleaved peptide sequence VI present, Xa 0.00 ng/mL
[6] = target: NH2-…-TAG (SEQ ID NO:5); assay: ECL capture assay; uncleaved NH2-…-TAG at 1.25 µg/mL, FXa 0.00 ng/mL
[7] = test system: T1, Peptide sequence VI: NH2-IEGRDYKDDDDKGS-amide
T1 sequence: IEGRDYKDDDDKGS

[8] = test system: T2, NH2-IEGRDYKDDDDKGS-TAG (SEQ ID NO:5)
T2 sequence: IEGRDYKDDDDKGS

[9] = test system: T3, Peptide probe sequence I: Biotin-IEGRGS (KBv TAG Plus) amide
T3 sequence: IEGRGSK

[10] = test system: T4, Peptide sequence V: Bz-IEGRDYKDDDDKGSHHHHHH(mPeg2)(KLCBiot)-amide
T4 sequence: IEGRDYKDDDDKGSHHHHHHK

[11] = test system: T5, Peptide probe sequence II: Biotin-(mPeg2)IEGRGS (KBv TAG Plus) amide
T5 sequence: IEGRGSK

Mean Signal (ECL, background without FXa) [1]: 345 ECL signal
Mean Signal (ECL, background without FXa) [2]: 319 ECL signal
Substance: BV TAG Plus-conjugated ANTI-FLAG® M1 antibody

Mean Signal (ECL, background without FXa) [3]: 1770 ECL signal
Mean Signal (ECL, background without FXa) [4]: 856 ECL signal
Mean Signal (ECL, without FXa) [5]: 91800 ECL signal
Mean Signal (ECL, background without FXa) [6]: 593 ECL signal
Substance: Biotin-conjugated ANTI-FLAG® M1 antibody

Substance: factor Xa (FXa)
% Signal Decrease, Xa 0.686 ng/mL [7]: -8.5%
% Signal Decrease, Xa 2.06 ng/mL [7]: -22%
% Signal Decrease, Xa 6.17 ng/mL [7]: -42%
% Signal Decrease, Xa 18.5 ng/mL [7]: -60%
% Signal Decrease, Xa 55.6 ng/mL [7]: -75%
% Signal Decrease, Xa 167 ng/mL [7]: -84%
% Signal Decrease, Xa 500 ng/mL [7]: -89%
Mean Signal (ECL, competitive format), Xa 0.686 ng/mL [7]: 84000 ECL signal
Mean Signal (ECL, competitive format), Xa 2.06 ng/mL [7]: 71900 ECL signal
Mean Signal (ECL, competitive format), Xa 6.17 ng/mL [7]: 53000 ECL signal
Mean Signal (ECL, competitive format), Xa 18.5 ng/mL [7]: 36400 ECL signal
Mean Signal (ECL, competitive format), Xa 55.6 ng/mL [7]: 22500 ECL signal
Mean Signal (ECL, competitive format), Xa 167 ng/mL [7]: 14300 ECL signal
Mean Signal (ECL, competitive format), Xa 500 ng/mL [7]: 9830 ECL signal
Mean Signal (ECL, capture on anti-FLAG M1 beads), FXa 1.37 ng/mL, peptide 1.25 µg/mL [8]: 1140 ECL signal
Mean Signal (ECL, capture on anti-FLAG M1 beads), FXa 1.37 ng/mL, peptide 2.5 µg/mL [8]: 1390 ECL signal
Mean Signal (ECL, capture on anti-FLAG M1 beads), FXa 1.37 ng/mL, peptide 5.0 µg/mL [8]: 3720 ECL signal
Mean Signal (ECL, capture on anti-FLAG M1 beads), FXa 4.12 ng/mL, peptide 1.25 µg/mL [8]: 2170 ECL signal
Mean Signal (ECL, capture on anti-FLAG M1 beads), FXa 4.12 ng/mL, peptide 2.5 µg/mL [8]: 3830 ECL signal
Mean Signal (ECL, capture on anti-FLAG M1 beads), FXa 4.12 ng/mL, peptide 5.0 µg/mL [8]: 6360 ECL signal
Mean Signal (ECL, capture on anti-FLAG M1 beads), FXa 12.3 ng/mL, peptide 1.25 µg/mL [8]: 4440 ECL signal
Mean Signal (ECL, capture on anti-FLAG M1 beads), FXa 12.3 ng/mL, peptide 2.5 µg/mL [8]: 7700 ECL signal
Mean Signal (ECL, capture on anti-FLAG M1 beads), FXa 12.3 ng/mL, peptide 5.0 µg/mL [8]: 14900 ECL signal
Mean Signal (ECL, capture on anti-FLAG M1 beads), FXa 37.0 ng/mL, peptide 1.25 µg/mL [8]: 10700 ECL signal
Mean Signal (ECL, capture on anti-FLAG M1 beads), FXa 37.0 ng/mL, peptide 2.5 µg/mL [8]: 20100 ECL signal
Mean Signal (ECL, capture on anti-FLAG M1 beads), FXa 37.0 ng/mL, peptide 5.0 µg/mL [8]: 32300 ECL signal
Mean Signal (ECL, capture on anti-FLAG M1 beads), FXa 111 ng/mL, peptide 1.25 µg/mL [8]: 20500 ECL signal
Mean Signal (ECL, capture on anti-FLAG M1 beads), FXa 111 ng/mL, peptide 2.5 µg/mL [8]: 41800 ECL signal
Mean Signal (ECL, capture on anti-FLAG M1 beads), FXa 111 ng/mL, peptide 5.0 µg/mL [8]: 62100 ECL signal
Mean Signal (ECL, capture on anti-FLAG M1 beads), FXa 333 ng/mL, peptide 1.25 µg/mL [8]: 52800 ECL signal
Mean Signal (ECL, capture on anti-FLAG M1 beads), FXa 333 ng/mL, peptide 2.5 µg/mL [8]: 62700 ECL signal
Mean Signal (ECL, capture on anti-FLAG M1 beads), FXa 333 ng/mL, peptide 5.0 µg/mL [8]: 78700 ECL signal
Mean Signal (ECL, capture on anti-FLAG M1 beads), FXa 1000 ng/mL, peptide 1.25 µg/mL [8]: 69000 ECL signal
Mean Signal (ECL, capture on anti-FLAG M1 beads), FXa 1000 ng/mL, peptide 2.5 µg/mL [8]: 78200 ECL signal
Mean Signal (ECL, capture on anti-FLAG M1 beads), FXa 1000 ng/mL, peptide 5.0 µg/mL [8]: 86900 ECL signal
Signal/Background, FXa 1.37 ng/mL, peptide 1.25 µg/mL [8]: 1.9
Signal/Background, FXa 1.37 ng/mL, peptide 2.5 µg/mL [8]: 1.6
Signal/Background, FXa 1.37 ng/mL, peptide 5.0 µg/mL [8]: 2.1
Signal/Background, FXa 4.12 ng/mL, peptide 1.25 µg/mL [8]: 3.7
Signal/Background, FXa 4.12 ng/mL, peptide 2.5 µg/mL [8]: 4.5
Signal/Background, FXa 4.12 ng/mL, peptide 5.0 µg/mL [8]: 3.6
Signal/Background, FXa 12.3 ng/mL, peptide 1.25 µg/mL [8]: 7.5
Signal/Background, FXa 12.3 ng/mL, peptide 2.5 µg/mL [8]: 9
Signal/Background, FXa 12.3 ng/mL, peptide 5.0 µg/mL [8]: 8.4
Signal/Background, FXa 37.0 ng/mL, peptide 1.25 µg/mL [8]: 18
Signal/Background, FXa 37.0 ng/mL, peptide 2.5 µg/mL [8]: 24
Signal/Background, FXa 37.0 ng/mL, peptide 5.0 µg/mL [8]: 18
Signal/Background, FXa 111 ng/mL, peptide 1.25 µg/mL [8]: 35
Signal/Background, FXa 111 ng/mL, peptide 2.5 µg/mL [8]: 49
Signal/Background, FXa 111 ng/mL, peptide 5.0 µg/mL [8]: 35
Signal/Background, FXa 333 ng/mL, peptide 1.25 µg/mL [8]: 89
Signal/Background, FXa 333 ng/mL, peptide 2.5 µg/mL [8]: 73
Signal/Background, FXa 333 ng/mL, peptide 5.0 µg/mL [8]: 45
Signal/Background, FXa 1000 ng/mL, peptide 1.25 µg/mL [8]: 116
Signal/Background, FXa 1000 ng/mL, peptide 2.5 µg/mL [8]: 91
Signal/Background, FXa 1000 ng/mL, peptide 5.0 µg/mL [8]: 49
% Signal Decrease, FXa 78.1 ng/mL [9]: -3%
% Signal Decrease, FXa 156 ng/mL [9]: -3%
% Signal Decrease, FXa 313 ng/mL [9]: -9%
% Signal Decrease, FXa 625 ng/mL [9]: -15%
% Signal Decrease, FXa 1250 ng/mL [9]: -31%
% Signal Decrease, FXa 2500 ng/mL [9]: -53%
% Signal Decrease, FXa 5000 ng/mL [9]: -76%
Mean Signal (ECL), FXa 78.1 ng/mL [9]: 414000 ECL signal
Mean Signal (ECL), FXa 156 ng/mL [9]: 413000 ECL signal
Mean Signal (ECL), FXa 313 ng/mL [9]: 388000 ECL signal
Mean Signal (ECL), FXa 625 ng/mL [9]: 363000 ECL signal
Mean Signal (ECL), FXa 1250 ng/mL [9]: 296000 ECL signal
Mean Signal (ECL), FXa 2500 ng/mL [9]: 202000 ECL signal
Mean Signal (ECL), FXa 5000 ng/mL [9]: 104000 ECL signal
Mean Signal (ECL, TAG Plus anti-FLAG M1 detector), FXa 0.686 ng/mL, 10 minute incubation [10]: 856 ECL signal
Mean Signal (ECL, TAG Plus anti-FLAG M1 detector), FXa 0.686 ng/mL, 20 minute incubation [10]: 1050 ECL signal
Mean Signal (ECL, TAG Plus anti-FLAG M1 detector), FXa 2.06 ng/mL, 10 minute incubation [10]: 1430 ECL signal
Mean Signal (ECL, TAG Plus anti-FLAG M1 detector), FXa 2.06 ng/mL, 20 minute incubation [10]: 2110 ECL signal
Mean Signal (ECL, TAG Plus anti-FLAG M1 detector), FXa 6.17 ng/mL, 10 minute incubation [10]: 3100 ECL signal
Mean Signal (ECL, TAG Plus anti-FLAG M1 detector), FXa 6.17 ng/mL, 20 minute incubation [10]: 6040 ECL signal
Mean Signal (ECL, TAG Plus anti-FLAG M1 detector), FXa 18.5 ng/mL, 10 minute incubation [10]: 8790 ECL signal
Mean Signal (ECL, TAG Plus anti-FLAG M1 detector), FXa 18.5 ng/mL, 20 minute incubation [10]: 20700 ECL signal
Mean Signal (ECL, TAG Plus anti-FLAG M1 detector), FXa 55.6 ng/mL, 10 minute incubation [10]: 33700 ECL signal
Mean Signal (ECL, TAG Plus anti-FLAG M1 detector), FXa 55.6 ng/mL, 20 minute incubation [10]: 74000 ECL signal
Mean Signal (ECL, TAG Plus anti-FLAG M1 detector), FXa 167 ng/mL, 10 minute incubation [10]: 113000 ECL signal
Mean Signal (ECL, TAG Plus anti-FLAG M1 detector), FXa 167 ng/mL, 20 minute incubation [10]: 225000 ECL signal
Mean Signal (ECL, TAG Plus anti-FLAG M1 detector), FXa 500 ng/mL, 10 minute incubation [10]: 298000 ECL signal
Mean Signal (ECL, TAG Plus anti-FLAG M1 detector), FXa 500 ng/mL, 20 minute incubation [10]: 498000 ECL signal
Signal/Background, FXa 0.686 ng/mL, 10 minute incubation [10]: 2.5
Signal/Background, FXa 0.686 ng/mL, 20 minute incubation [10]: 3.3
Signal/Background, FXa 2.06 ng/mL, 10 minute incubation [10]: 4.1
Signal/Background, FXa 2.06 ng/mL, 20 minute incubation [10]: 6.6
Signal/Background, FXa 6.17 ng/mL, 10 minute incubation [10]: 9
Signal/Background, FXa 6.17 ng/mL, 20 minute incubation [10]: 19
Signal/Background, FXa 18.5 ng/mL, 10 minute incubation [10]: 25
Signal/Background, FXa 18.5 ng/mL, 20 minute incubation [10]: 65
Signal/Background, FXa 55.6 ng/mL, 10 minute incubation [10]: 98
Signal/Background, FXa 55.6 ng/mL, 20 minute incubation [10]: 232
Signal/Background, FXa 167 ng/mL, 10 minute incubation [10]: 328
Signal/Background, FXa 167 ng/mL, 20 minute incubation [10]: 706
Signal/Background, FXa 500 ng/mL, 10 minute incubation [10]: 864
Signal/Background, FXa 500 ng/mL, 20 minute incubation [10]: 1560
% Signal Decrease, FXa 78.1 ng/mL [11]: 0%
% Signal Decrease, FXa 156 ng/mL [11]: -4%
% Signal Decrease, FXa 313 ng/mL [11]: -11%
% Signal Decrease, FXa 625 ng/mL [11]: -10%
% Signal Decrease, FXa 1250 ng/mL [11]: -24%
% Signal Decrease, FXa 2500 ng/mL [11]: -39%
% Signal Decrease, FXa 5000 ng/mL [11]: -66%
Mean Signal (ECL), FXa 78.1 ng/mL [11]: 340000 ECL signal
Mean Signal (ECL), FXa 156 ng/mL [11]: 326000 ECL signal
Mean Signal (ECL), FXa 313 ng/mL [11]: 303000 ECL signal
Mean Signal (ECL), FXa 625 ng/mL [11]: 306000 ECL signal
Mean Signal (ECL), FXa 1250 ng/mL [11]: 257000 ECL signal
Mean Signal (ECL), FXa 2500 ng/mL [11]: 209000 ECL signal
Mean Signal (ECL), FXa 5000 ng/mL [11]: 117000 ECL signal

Reference: US20140141450A1
